Changes are numbered by the printed parent chain. Numbered stars: 1 amine (or outer) side, 2 acyl side, 3 side chain; on linkers, the order of the positions; unused ones are H or OH. Square brackets hold non-standard residues; d marks the D form. Side chains are listed from the residue outwards. Ends that are not written are not given here. * marks the point of attachment. C20 diacid = O=C(O)CCCCCCCCCCCCCCCCCCC(=O)*; γGlu = O=C(O)[C@H](CCC(=O)[*:2])N[*:1]; αMeL = CC(C)C[C@](C)(N)C(=O)O; Dab = NCC[C@H](N)C(=O)O; Dap = NC[C@H](N)C(=O)O; AEEA = NCCOCCOCC(=O)O; Aib = CC(C)(N)C(=O)O

This is an account of results in patent US20220048967A1 (published 2022).

Assay in all cases: cell-based or functional assay
For test [1], the target named is T1, human gastric inhibitory peptide receptor (GIPR) (human, UniProt P48546 22-466).
T1 sequence (looked up): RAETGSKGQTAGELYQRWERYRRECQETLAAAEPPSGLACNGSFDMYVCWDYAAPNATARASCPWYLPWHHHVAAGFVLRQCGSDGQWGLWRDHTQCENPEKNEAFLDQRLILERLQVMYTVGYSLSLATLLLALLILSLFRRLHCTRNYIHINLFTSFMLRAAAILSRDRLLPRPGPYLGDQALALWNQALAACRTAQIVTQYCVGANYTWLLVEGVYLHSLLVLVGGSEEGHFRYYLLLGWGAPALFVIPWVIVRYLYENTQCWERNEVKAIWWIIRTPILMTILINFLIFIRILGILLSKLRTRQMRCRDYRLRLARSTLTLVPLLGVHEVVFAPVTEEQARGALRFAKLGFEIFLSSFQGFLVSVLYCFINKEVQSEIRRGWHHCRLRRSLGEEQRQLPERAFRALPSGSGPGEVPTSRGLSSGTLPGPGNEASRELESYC

Test [2] deals with human GLP-1 receptor (GLP-1R) (human, UniProt P43220 24-463).
The target in test [3] is human GLP-1 receptor (human, UniProt P43220 24-463).
Test [4] addresses T2, human GIP receptor (human, UniProt P48546 22-466).
T2 sequence (looked up): T1 sequence (looked up)

B1: Example 351 (peptide)
peptide: [dY][Aib]EGTFTSDYSI[αMeL]LD[Dap]K([AEEA-AEEA-γGlu-C20 diacid])AQ[Aib]EFIEYLIAGGPSSGAPPPS-NH2
modifications: N-terminus assumed
SMILES: CC[C@H](C)[C@H](NC(=O)[C@H](CC(C)C)NC(=O)[C@H](Cc1ccc(O)cc1)NC(=O)[C@H](CCC(=O)O)NC(=O)[C@@H](NC(=O)[C@H](Cc1ccccc1)NC(=O)[C@H](CCC(=O)O)NC(=O)C(C)(C)NC(=O)[C@H](CCC(N)=O)NC(=O)[C@H](C)NC(=O)[C@H](CCCCNC(=O)COCCOCCNC(=O)COCCOCCNC(=O)CC[C@H](NC(=O)CCCCCCCCCCCCCCCCCCC(=O)O)C(=O)O)NC(=O)[C@H](CN)NC(=O)[C@H](CC(=O)O)NC(=O)[C@H](CC(C)C)NC(=O)[C@](C)(CC(C)C)NC(=O)[C@@H](NC(=O)[C@H](CO)NC(=O)[C@H](Cc1ccc(O)cc1)NC(=O)[C@H](CC(=O)O)NC(=O)[C@H](CO)NC(=O)[C@@H](NC(=O)[C@H](Cc1ccccc1)NC(=O)[C@@H](NC(=O)CNC(=O)[C@H](CCC(=O)O)NC(=O)C(C)(C)NC(=O)[C@H](N)Cc1ccc(O)cc1)[C@@H](C)O)[C@@H](C)O)[C@@H](C)CC)[C@@H](C)CC)C(=O)N[C@@H](C)C(=O)NCC(=O)NCC(=O)N1CCC[C@H]1C(=O)N[C@@H](CO)C(=O)N[C@@H](CO)C(=O)NCC(=O)N[C@@H](C)C(=O)N1CCC[C@H]1C(=O)N1CCC[C@H]1C(=O)N1CCC[C@H]1C(=O)N[C@@H](CO)C(N)=O
Consider B1, for which, in test [1], the “hGIPR cAMP EC50 ratio” value was 0.47 and the “hGIPR cAMP Rel EC50” value came to 298 pM. Moreover, in test [2], the “hGLP1R cAMP EC50 ratio” value came to 0.22 and the “hGLP1R cAMP Rel EC50” value came out at 149 pM.

B2: Example 352 (peptide)
peptide: XXEGTFTSDYSIXLDKKAQXAFIXYLIAGGPSSGAPPPS
modifications: D-Tyr1, Aib2, αMeL13, (2-[2-(2-Amino-ethoxy)-ethoxy]-acetyl)2-(γ-Glu)-CO-(CH2)18-CO2H on K17, Aib20, D-Glu24, C-terminal NH2
As for B2, in test [1], the “hGIPR cAMP EC50 ratio” value came to 0.815 and the “hGIPR cAMP Rel EC50” value turned out to be 127 pM. Also, in test [2], the “hGLP1R cAMP EC50 ratio” value came to 0.201 and the “hGLP1R cAMP Rel EC50” value turned out to be 142 pM.

B3: Example 353 (peptide)
peptide: B2 peptide with A21E, A28E
modifications: D-Tyr1, Aib2, αMeL13, (2-[2-(2-Amino-ethoxy)-ethoxy]-acetyl)2-(γ-Glu)-CO-(CH2)18-CO2H on K17, Aib20, D-Glu24, C-terminal NH2
In the case of B3, in test [1], the “hGIPR cAMP EC50 ratio” value amounted to 0.145 and the “hGIPR cAMP Rel EC50” value stood at 497 pM. Also, in test [2], the “hGLP1R cAMP EC50 ratio” value was 0.0231 and the “hGLP1R cAMP Rel EC50” value was 1090 pM.

B4: Example 355 (peptide)
peptide: B2 peptide with K16X, A21E, A28E
modifications: D-Tyr1, Aib2, αMeL13, Orn16, (2-[2-(2-Amino-ethoxy)-ethoxy]-acetyl)2-(γ-Glu)-CO-(CH2)18-CO2H on K17, Aib20, D-Glu24, C-terminal NH2
For B4, in test [1], the “hGIPR cAMP EC50 ratio” value came to 0.111 and the “hGIPR cAMP Rel EC50” value was found to be 685 pM. Also, in test [2], the “hGLP1R cAMP EC50 ratio” value was 0.0285 and the “hGLP1R cAMP Rel EC50” value amounted to 896 pM.

B5: Example 358 (peptide)
peptide: B2 peptide with K16X, I23V, X24E
modifications: D-Tyr1, Aib2, αMeL13, Orn16, (2-[2-(2-Amino-ethoxy)-ethoxy]-acetyl)2-(γ-Glu)-CO-(CH2)18-CO2H on K17, Aib20, C-terminal NH2
On to B5, for which, in test [1], the “hGIPR cAMP EC50 ratio” value came out at 0.662 and the “hGIPR cAMP Rel EC50” value amounted to 183 pM. In test [2], the “hGLP1R cAMP EC50 ratio” value is 0.26 and the “hGLP1R cAMP Rel EC50” value came out at 117 pM.

B6: Example 87 (peptide)
peptide: B2 peptide with X1Y, X13L, X24E, A28E
modifications: αMePro2; K17((2-[2-(2-Amino-ethoxy)-ethoxy]-acetyl)2-(γ-Glu)-CO-(CH2)18-CO2H); Aib20; C-terminal NH2
As for B6, the “hGLP1R cAMP Rel EC50” value in test [3] is 80.1 pM.

B7: Example 114 (peptide)
peptide: B2 peptide with X1Y, X13L, X24E, A28E
modifications: Aib2; K17((2-[2-(2-Amino-ethoxy)-ethoxy]-acetyl)-(ϵK)-(ϵK)-CO-(CH2)18-CO2H); Aib20; C-terminal NH2
For the molecule B7, the “hGLP1R cAMP Rel EC50” value in test [3] amounted to 267 pM.

B8: Example 356 (peptide)
peptide: B2 peptide with A28E
modifications: D-Tyr1, Aib2, αMeL13, (2-[2-(2-Amino-ethoxy)-ethoxy]-acetyl)2-(γ-Glu)-CO-(CH2)18-CO2H on K17, Aib20, D-Glu24, C-terminal NH2
In the case of B8, in test [1], the “hGIPR cAMP EC50 ratio” value came to 0.364 and the “hGIPR cAMP Rel EC50” value stood at 386 pM. Also, in test [2], the “hGLP1R cAMP EC50 ratio” value was determined as 0.0647 and the “hGLP1R cAMP Rel EC50” value was found to be 506 pM.

B9: Example 354 (peptide)
peptide: B2 peptide with K16X, A21E
modifications: D-Tyr1, Aib2, αMeL13, Orn16, (2-[2-(2-Amino-ethoxy)-ethoxy]-acetyl)2-(γ-Glu)-CO-(CH2)18-CO2H on K17, Aib20, D-Glu24, C-terminal NH2
Consider B9, for which, in test [1], the “hGIPR cAMP EC50 ratio” value was found to be 0.441 and the “hGIPR cAMP Rel EC50” value was 233 pM. Moreover, in test [2], the “hGLP1R cAMP EC50 ratio” value is 0.0517 and the “hGLP1R cAMP Rel EC50” value amounted to 540 pM.

B10: Example 108 (peptide)
peptide: B2 peptide with X1Y, X13L, X24E, A28E
modifications: Aib2; K17((2-[2-(2-Amino-ethoxy)-ethoxy]-acetyl)-AOC-(γ-Glu)-CO-(CH2)18-CO2H); Aib20; C-terminal NH2
Take B10: the “hGLP1R cAMP Rel EC50” value in test [3] came to 294 pM.

B11: Example 357 (peptide)
peptide: B2 peptide with K16X, A28E
modifications: D-Tyr1, Aib2, αMeL13, Orn16, (2-[2-(2-Amino-ethoxy)-ethoxy]-acetyl)2-(γ-Glu)-CO-(CH2)18-CO2H on K17, Aib20, D-Glu24, C-terminal NH2
On to B11, for which, in test [1], the “hGIPR cAMP EC50 ratio” value was determined as 0.366 and the “hGIPR cAMP Rel EC50” value stood at 384 pM. For the same molecule, in test [2], the “hGLP1R cAMP EC50 ratio” value turned out to be 0.181 and the “hGLP1R cAMP Rel EC50” value was 181 pM.

B12: Example 111 (peptide)
peptide: B2 peptide with X1Y, X13L, X24E, A28E
modifications: Aib2; K17((2-[2-(2-Amino-ethoxy)-ethoxy]-acetyl)-(Trx)-(γ-Glu)-CO-(CH2)18-CO2H); Aib20; C-terminal NH2
For the molecule B12, the “hGLP1R cAMP Rel EC50” value in test [3] turned out to be 308 pM.

B13: Example 3 (peptide)
peptide: YXEGTXTSDYSIXLDXKAQXEFIXYLIEGGPSSGAPPPS
modifications: Aib2; αMeF(2F)6; αMeL13; Orn16; K17((2-[2-(2-Amino-ethoxy)-ethoxy]-acetyl)2-(γ-Glu)-CO-(CH2)18-CO2H); Aib20; D-Glu24; C-terminal NH2
Consider B13, for which, in test [4], the “hGIPR cAMP Rel EC50” value stood at 41.1 pM.

B14: Example 350 (peptide)
peptide: [dY][Aib]EGTFTSDYSI[αMeL]LD[Dab]K([AEEA-AEEA-γGlu-C20 diacid])AQ[Aib]EFIEYLIAGGPSSGAPPPS-NH2
modifications: N-terminus assumed
SMILES: CC[C@H](C)[C@H](NC(=O)[C@H](CC(C)C)NC(=O)[C@H](Cc1ccc(O)cc1)NC(=O)[C@H](CCC(=O)O)NC(=O)[C@@H](NC(=O)[C@H](Cc1ccccc1)NC(=O)[C@H](CCC(=O)O)NC(=O)C(C)(C)NC(=O)[C@H](CCC(N)=O)NC(=O)[C@H](C)NC(=O)[C@H](CCCCNC(=O)COCCOCCNC(=O)COCCOCCNC(=O)CC[C@H](NC(=O)CCCCCCCCCCCCCCCCCCC(=O)O)C(=O)O)NC(=O)[C@H](CCN)NC(=O)[C@H](CC(=O)O)NC(=O)[C@H](CC(C)C)NC(=O)[C@](C)(CC(C)C)NC(=O)[C@@H](NC(=O)[C@H](CO)NC(=O)[C@H](Cc1ccc(O)cc1)NC(=O)[C@H](CC(=O)O)NC(=O)[C@H](CO)NC(=O)[C@@H](NC(=O)[C@H](Cc1ccccc1)NC(=O)[C@@H](NC(=O)CNC(=O)[C@H](CCC(=O)O)NC(=O)C(C)(C)NC(=O)[C@H](N)Cc1ccc(O)cc1)[C@@H](C)O)[C@@H](C)O)[C@@H](C)CC)[C@@H](C)CC)C(=O)N[C@@H](C)C(=O)NCC(=O)NCC(=O)N1CCC[C@H]1C(=O)N[C@@H](CO)C(=O)N[C@@H](CO)C(=O)NCC(=O)N[C@@H](C)C(=O)N1CCC[C@H]1C(=O)N1CCC[C@H]1C(=O)N1CCC[C@H]1C(=O)N[C@@H](CO)C(N)=O
As to B14, in test [1], the “hGIPR cAMP EC50 ratio” value turned out to be 0.741 and the “hGIPR cAMP Rel EC50” value is 189 pM. For the same molecule, in test [2], the “hGLP1R cAMP EC50 ratio” value was 0.307 and the “hGLP1R cAMP Rel EC50” value is 107 pM.
